# Source: patent US20210139605A1 (AGENCY FOR SCIENCE TECHNOLOGY AND RESEARCH, published 2021)
# Changes are numbered by the printed parent chain.
# B1: PFA1 Fab (Fab, V domains shown)
# VH: EVQLVQSGGGVVQPGRSLRLSCAASGFTFSSYGMHWVRQAPGKGLEWVAVISYDGSNKYYADSVKGRFTISRDNSKNTLFLQMNSLRAEDTAVYYCARDLFAVVGYYYYYGMDVWGQGTTVTVSS
# VL: EIVLTQSPFSLPVTPGEPASISCRSSQSLLHSNGFNYLDWYLQKPGQSPQLLIYLGSNRASGVPDRFSGSGSGTDFTLKISRVEAEDVGVYYCMQGLQTPYTFGQGTKLEIKR
# notes: Entries are labelled light/heavy chain VD but as printed run through CL and CH1 (Fab chains); Label A1 tied to PFA1 by inference
# B2: PFB5 Fab (Fab, V domains shown)
# VH: EVQLVQSGAEVKKPGSSVKVSCKASGGTFSSYAISWVRQAPGQGLEWMGGIIPIFGTANYAQKFQGRVTITADESTSTAYMELSSLRSEDTAVYYCARGRGSGYPDTWFWFDPWGQGTLVTVSS
# VL: not shown
# notes: Printed entries run through CL and CH1 (Fab chains); Label B5 tied to PFB5 by inference
# B3: PFC3 Fab (Fab, V domains shown)
# VH: QVQLVQSGGGLVQPGGSLRLSCAASGFTFSSYAMSWVRQAPGKGLEWVSGINWNGGSTGYADSVKGRFTISRDNSKNTLYLQMNSLRAEDTAVYYCAKGLVPAASMDVWGQGTTVTVSS
# VL: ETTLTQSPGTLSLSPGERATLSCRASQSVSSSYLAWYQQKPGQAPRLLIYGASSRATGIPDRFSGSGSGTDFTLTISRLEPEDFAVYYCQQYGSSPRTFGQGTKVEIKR
# notes: Printed entries run through CL and CH1 (Fab chains); Label C3 tied to PFC3 by inference
# B4: clone C5 Fab (P1C5, from the phage display Fab library) (Fab, V domains shown)
# VH: QVQLQESGPGLVKPSETLSLTCTVSGGSISSSSYYWGWIRQPPGKGLEWIGSIYYSGSTYYNPSLKSRVTISVDTSKNQFSLKLSSVTAADTAVYYCARYAPDSSGYLVAFDIWGQGTMVTVSS
# VL: QTVVTQEPSFSVSPGGTVTLTCGLSSGSVSTGYYPSWYQQTPGQAPRTLIYSTNSRSSGVPDRFSGSILGNKAALTITGAQADDESDYYCVLYMGSGISVFGGGTKLTVLG
# B5: PFA4 Fab (Fab, V domains shown)
# VH: EVQLVQSGGGVVQPGRSLRLSCAASGFTFSSYAMHWVRQAPGKGLEWVAVISYDGSNKYYADSVKGRFTISRDNSKNTLYLQMNSLRAEDTAVYYCARSRGYYGMDVWGQGTTVTVSS
# VL: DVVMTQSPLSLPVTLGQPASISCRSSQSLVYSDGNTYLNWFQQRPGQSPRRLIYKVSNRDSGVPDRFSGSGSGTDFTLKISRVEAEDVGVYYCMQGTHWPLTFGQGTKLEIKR
# notes: Printed entries run through CL and CH1 (Fab chains); Label A4 tied to PFA4 by inference
# B6: PFD1 Fab (Fab, V domains shown)
# VH: B5 VH with A33G, S75A, T78S, Y103S, M105Y, V107N, T113L
# VL: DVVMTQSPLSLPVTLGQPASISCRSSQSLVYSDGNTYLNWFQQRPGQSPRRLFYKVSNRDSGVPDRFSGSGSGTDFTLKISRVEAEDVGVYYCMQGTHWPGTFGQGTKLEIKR
# notes: Printed entries run through CL and CH1 (Fab chains); Label D1 tied to PFD1 by inference
# B7: PFD2 Fab (Fab, V domains shown)
# VH: QVQLQQWGAGLLKPSETLSLTCAVYGGSFSGYYWSWIRQPPGKGLEWIGEINHSGSTNYNPSLKSRVTISVDTSKNQFSLKLSSVTAADTAVYYCARGLPYYYFDYWGQGTLVTVSS
# VL: QSVVTQPPSVSGAPGQRVTISCTGRSANIGGFDVQWYRQLPGTAPQLLIYDNSNRPSGVPDRFSGSKSGTSATLAISGLQTGDEADYYCGTWDSYLNIWVFGGGTKLTVLS
# notes: Printed entries run through CL and CH1 (Fab chains); Label D2 tied to PFD2 by inference
# B8: PFD3 Fab (Fab, V domains shown)
# VH: EVQLVQSGAEVKKPGESLKISCKGSGYSFTSYWIGWVRQMPGKGLEWMGIIYPGDSDTRYSPSFQGQVTISADKSISTAYLQWSSLKASDTAMYYCARLGYGVPLPEYFDLWGRGTLVTVSS
# VL: B4 VL with T2A, T5I, G23A, S25T, G32S, A45P, S55L, V91E, L107V
# notes: Printed entries run through CL and CH1 (Fab chains); Label D3 tied to PFD3 by inference
# B9: PFD4 Fab (Fab, V domains shown)
# VH: QVQLVQSGGGLVQPGGSLRLSCSASGFTFSSYAMHWVRQAPGKGLEYVSAISSNGGSTYYADSVKGRFTISRDNSKNTLYLQMSSLRAEDTAVYYCARSRGYYGMDVWGQGTTVTVSS
# VL: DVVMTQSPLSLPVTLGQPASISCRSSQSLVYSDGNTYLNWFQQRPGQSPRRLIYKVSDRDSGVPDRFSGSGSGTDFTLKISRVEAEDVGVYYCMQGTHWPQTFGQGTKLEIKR
# notes: Printed entries run through CL and CH1 (Fab chains); Label D4 tied to PFD4 by inference
# B10: PFE2 Fab (Fab, V domains shown)
# VH: EVQLVQSGGGVVQPGRSLRLSCAASGFTFSSYAMHWVRQAPGKGLEWVAVISYDESNKYYADSVKGRFTISRDNSKNTLYLQMNSLRAEDTAVYYCAREPSGSWSYLYYYYYGMDVWGQGTTVTVSS
# VL: DVVMTQSPLSLPVTPGEPASISCRSSQSLLRSDGYNFVDWYLQKAGQSPQLLIHLGSDRASGVPDRFSGSGSGTDFTLRISRVEAEDVGVYYCMQALQTPRTFGQGTKVEIKR
# notes: Printed entries run through CL and CH1 (Fab chains); Label E2 tied to PFE2 by inference
# B11: clone E4 Fab (P1E4, from the phage display Fab library) (Fab, V domains shown)
# VH: QVQLQQWGAGLLKPSETLSLTCAVYGGSFSGYYWSWIRQPPGKGLEWIGEINHSGSTNYNPSLKSRVTISVDTSKNQFSLKLSSVTTADTAVYYCARMGINSGGYLYGMDVWGQGTTVTVSS
# VL: B4 VL with G32S, T41I, S52T, S55I, S65G, D83E, V91M, S99W
# B12: PFA2 Fab (Fab, V domains shown)
# VH: QVQLQQSGPGLVKPSQTLSLTCAISGESVSSAAAAWNWIRQSPSRGLEWLGRTYYRSKWYSEYAVSVKSRITINGDTSKNQVSLHLNAVTPEDTAIYYCVRGSIFDVWGQGTMVTVSS
# VL: EIVLTQSPLSLPVTPGEPASISCRSSQSLLHSDGNKYLDWYLQKPGQSPQLLIYLGSNRASGVPERFSGSGSGTDFTLKISRVEAEDVGVYYCMLGTHWPPMYIFGQGTKLEIKR
# notes: Printed entries run through CL and CH1 (Fab chains); Label A2 tied to PFA2 by inference
# B13: PFE5 Fab (Fab, V domains shown)
# VH: B5 VH
# VL: DIQMTQSPSSLSASVGDRVTITCRASQGISSWLAWYQQKPGKAPKLLIYAASSLQSGVPSRFSGSGSGTDFTLTISSLQPEDFATYYCQQANSFPPTFGPGTKVDIKR
# notes: Printed entries run through CL and CH1 (Fab chains); Label E5 tied to PFE5 by inference
# B14: clone F1 Fab (P1F1, from the phage display Fab library) (Fab, V domains shown)
# VH: QVQLVESGPGLVKPSGTLSLTCAVSGGSISSSNWWSWVRQPPGKGLEWIGEIYHSGSTNYNPSLKSRVTISVDTSKNQFSLKLSSVTAADTAVYYCARMGANSGGYLYGMDVWGQGTTVTVSS
# VL: B4 VL with G32S, S55T, S99W
# B15: PFF2 Fab (Fab, V domains shown)
# VH: QMQLVQSGGGVVQPGRSLRLSCAASGFSFKNYGMHWVRQAPGKGLEWVAFISYDGTNKYYADSVKGRFTISRDNSKNTLYLQMNSLRAEDTAVYYCAKHYGDYYYYYGMDVWGQGTTVTVSS
# VL: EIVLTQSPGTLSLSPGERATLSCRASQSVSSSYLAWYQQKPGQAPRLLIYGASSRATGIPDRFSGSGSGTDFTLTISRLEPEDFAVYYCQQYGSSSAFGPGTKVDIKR
# notes: Printed entries run through CL and CH1 (Fab chains); Label F2 tied to PFF2 by inference
# B16: PFF3 Fab (Fab, V domains shown)
# VH: QVQLVQSGGGLVQPGGSLRLSCSASGFTFSSYAIHWVRQAPGKGLEYVSAISSNGGSTYYADSVKGRFTISRDNSKNTLYLQMNSLRAEDTAVYYCARVYGYGLHYYGMDVWGQGTTVTVSS
# VL: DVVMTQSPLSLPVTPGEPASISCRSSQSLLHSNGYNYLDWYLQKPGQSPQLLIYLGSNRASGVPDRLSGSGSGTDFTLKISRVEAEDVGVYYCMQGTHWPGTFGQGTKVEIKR
# notes: Printed entries run through CL and CH1 (Fab chains); Label F3 tied to PFF3 by inference
# B17: PFG1 Fab (Fab, V domains shown)
# VH: EVQLVQSGGGVVQPGRSLRLSCAASGFTFSSYGMHWVRQAPGKGLEWVAVIWYDGSNKYYADSVKGRFTISRDNSKNTLYLQMNSLRAEDTAVYYCATMTTEDYWGQGTLVTVSS
# VL: QAVLTQPSSLSASPGASASLTCTLRSGINVGTYRIYWYQQKPGSPPQYLLRYKSDSDKQQGSGVPSRFSGSKDASANAGILLISGLQSEDEADYYCMIWHSSAWVFGGGTKLTVLG
# notes: Printed entries run through CL and CH1 (Fab chains); Label G1 tied to PFG1 by inference
# B18: PFG2 Fab (Fab, V domains shown)
# VH: EVQLVQSGGGLVQPGGSLRLSCAASGFTFSSYAMSWVRQAPGKGLEWVSSISSSSSYIYYADSVKGRFTISRDNAKNSLYLQMNSLRAEDTAVYYCARDGSAWSRPYWGQGTLVTVSS
# VL: EIVLTQSPATLSLSPGERATLSCRASQSVSSYLAWYQQKPGQAPRLLIYDASNRATGIPARFSGSGSGTDFTLTISSLEPEDFAVYYCQQRSNWPLTFGGGTKVEIKR
# notes: Printed entries run through CL and CH1 (Fab chains); Label G2 tied to PFG2 by inference
# B19: PFG4 Fab (Fab, V domains shown)
# VH: QVQLQQSGAEVKKPGSSVKVSCKASGGTFSSYAISWVRQAPGQGLEWMGGIIPIFGTANYAQKFQGRVTITADKSTSTAYMELSSLRSEDTAVYYCARGADWNSDYWGQGTLVTVSS
# VL: QSVLTQPPSVSKALRQTATLTCTGNNNNVGFAGAAWFLQHQGHPPKLLAYRNNDRPSGISERFSASRSGNTASLTITGLQPEDEADYYCSAWDSSLKVQVFGGGTKLTVLG
# notes: Printed entries run through CL and CH1 (Fab chains); Label G4 tied to PFG4 by inference
# B20: clone A3 Fab (P1A3, from the phage display Fab library) (Fab, V domains shown)
# VH: EVQLVQSGTEVKKPGASVRVSCKSSGYTFTSYYIHWVRQAPGQGLEWMAIINPGNGDTNYAQRFQGRVTMTRDTSTSTVYMELRSLRSDDTAVYFCAREIASYSGSYYDYWGQGTLVTVSS
# VL: QAVVTQEPSLSVSPGGTVTLTCGLSSGSVSTGHYASWYQQTPGQAPRTLFYNTNTRSSGVPDRFSGSIVGNKAALTITGAQADDESDYYCVLYVGDGIWVFGGGTKLTVLG
# B21: PFA5 Fab (Fab, V domains shown)
# VH: QVQLVQSGAEVKKPGASVKVSCKASGYTFTSYAMHWVRQAPGQRLEWMGWINAGNGNTKYSQKFQGRVTITRDTSASTAYMELSSLRSEDTAVYYCARGGYLVGYWGQGTLVTVSS
# VL: not shown
# notes: Printed entries run through CL and CH1 (Fab chains); Label A5 tied to PFA5 by inference
# B22: PFB1 Fab (Fab, V domains shown)
# VH: QVQLQESGGGLVQPGGSLRLSCAASGFTFSSFAMNWVRQAPGKGLEWVSTIGGSGDSTFYADPVKGRFTVSRDNSKNTLYLQMNSLRAEDTAVYYCAQAYGSGGHYFFAYWGQGTLVTVSS
# VL: DVVMTQSPLSLPVTPGEPASISCRSSQSLLHSNGNTYLDWYLQKPGQSPQVLIYSGSNRASGVPDRFSGSGSGTDFTLKISRVEAEDVGVYYCMQGTHWPPTFGQGTKVEIKR
# notes: Printed entries run through CL and CH1 (Fab chains); Label B1 tied to PFB1 by inference
# B23: PFB2 Fab (Fab, V domains shown)
# VH: EVQLVQSGAEVKKPGASVKVSCKASGYTFTSYGISWVRQAPGEGLEWMGWISAYNGNTNYAQKLQGRVTMTTDTSTSTAYMELRSLRSDDTAVYYCARDWGSSWSDYWGQGTLVTVSS
# VL: ETTLTQSPATLSLSPGERATLSCRASQSVRNNLAWYQHKPGQAPRLLIYYASTRATGIPDRFSGSGSGTDFTLTISRLEPEDFALYYCQHYGSSRTFGQGTKVEIKR
# notes: Printed entries run through CL and CH1 (Fab chains); Label B2 tied to PFB2 by inference
# B24: PFB3 Fab (Fab, V domains shown)
# VH: QVQLQESGGGLVQPGGSLRLSCAASGFTFSSYAMSWVRQAPGKGLEWVSAISGSGGSTYYADSVKGRFTISRDNSKNTVYLQMNSLRAEDTAVYYCARTYYDFWSGRVGAFDIWGQGTTVTVSS
# VL: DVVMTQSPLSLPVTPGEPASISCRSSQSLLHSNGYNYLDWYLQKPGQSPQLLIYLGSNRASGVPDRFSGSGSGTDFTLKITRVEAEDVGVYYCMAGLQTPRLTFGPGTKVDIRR
# notes: Printed entries run through CL and CH1 (Fab chains); Label B3 tied to PFB3 by inference
# Biological target: T1, human HER-2 protein (soluble / recombinant, used in SPR) (human, UniProt P04626 23-652)
# T1 construct: also called immobilized HER2 protein; recombinant HER-2
# Test: SPR, immobilized HER2 protein
row,Binder,koff
1,B1,0.00415 s⁻¹
2,B2,0.017 s⁻¹
3,B3,0.0528 s⁻¹
4,B4,0.00448 s⁻¹
5,B5,0.0196 s⁻¹
6,B6,0.0714 s⁻¹
7,B7,0.00486 s⁻¹
8,B8,0.0272 s⁻¹
9,B9,0.0342 s⁻¹
10,B10,0.0187 s⁻¹
11,B11,0.00181 s⁻¹
12,B12,0.00218 s⁻¹
13,B13,0.00152 s⁻¹
14,B14,0.00502 s⁻¹
15,B15,0.0047 s⁻¹
16,B16,0.00324 s⁻¹
17,B17,0.000324 s⁻¹
18,B18,0.000499 s⁻¹
19,B19,0.00063 s⁻¹
20,B20,0.00416 s⁻¹
21,B21,0.00326 s⁻¹
22,B22,0.00565 s⁻¹
23,B23,0.000177 s⁻¹
24,B24,0.0102 s⁻¹

# Biological target: T1, human HER-2 protein (soluble / …)
# Test: SPR, human HER2 immobilised, Fab flown, 1:1 Langmuir model
# Procedure: Rate constants of association, dissociation (kₐ, kd) and the equilibrium dissociation constants (KD) were determined for anti-HER2 Fab molecules. Human HER2 protein (50 μg/mL) was immobilised on the SPR sensor chip and was exposed to five different concentrations of each Fab in 2- or 3-fold dilutions over the flow cells. 1:1 Langmuir model was used to derive the constants.
Binder,Kd,koff,kon
B2,112 nM,0.02 s⁻¹,176000 M⁻¹ s⁻¹
B3,15.3 nM,0.063 s⁻¹,4.11e+06 M⁻¹ s⁻¹
B5,20.5 nM,0.042 s⁻¹,2.03e+06 M⁻¹ s⁻¹
